According to patent US20260258128A1:

Experiments:
[1] = target: CD3 on T cells of human peripheral blood mononuclear cells (human) (UniProt P07766); experiment: cell-based or functional assay
[2] = target: human CD3εδ (human) (UniProt P07766); experiment: SPR (Biacore T200), binding to CD3εδ against binding to CD3εγ
human CD3εδ (human), sequence (P07766 23-126, stated change not applied, chain 1 of 2): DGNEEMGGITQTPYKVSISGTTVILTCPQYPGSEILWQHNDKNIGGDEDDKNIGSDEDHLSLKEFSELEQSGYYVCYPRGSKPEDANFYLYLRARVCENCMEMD
human CD3εδ (human), sequence (P04234 22-105, stated change not applied, chain 2 of 2, further chain): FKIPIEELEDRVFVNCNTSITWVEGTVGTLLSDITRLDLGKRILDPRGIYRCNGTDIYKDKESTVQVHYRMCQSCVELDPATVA

CD3 on T cells of human peripheral blood mononuclear cells (human), sequence (P07766 23-207): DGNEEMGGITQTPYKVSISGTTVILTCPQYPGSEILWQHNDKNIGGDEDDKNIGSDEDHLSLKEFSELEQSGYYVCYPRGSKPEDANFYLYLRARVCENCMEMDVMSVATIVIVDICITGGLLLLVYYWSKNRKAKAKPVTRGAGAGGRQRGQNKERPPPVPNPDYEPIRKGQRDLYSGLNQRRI

IFNγ release EC50 [1]: 3 pM
IFNγ release Maximum concentration [1]: 16 ng/mL
T cell activation (CD3+ CD8+ CD69+), human PBMC only, flow cytometry [1]: 60%
ratio of the binding strength to CD3εδ/binding strength to CD3εγ [2]: 19.3 fold
Substance: CD3 (UCHT1)-binding monoclonal antibody
Death of cancer cells EC50 (MDA-MB-231 + human PBMC, flow cytometry) [1]: 0.5 pM
Death of cancer cells Emax (%) [1]: 46%
